Here are results for one molecule from US20240400703A1 (Genmab, published 2024).

Where a chain is given by its changes, count along the chain named. Numbers in names are those of the source.

Assay [1] has as its target T1, cynomolgus monkey OX40 expressed on HEK293F cells (cynomolgus monkey (Macaca fascicularis), UniProt P43489 29-277 (human entry)).
T1 construct: full-length entry
T1 chain: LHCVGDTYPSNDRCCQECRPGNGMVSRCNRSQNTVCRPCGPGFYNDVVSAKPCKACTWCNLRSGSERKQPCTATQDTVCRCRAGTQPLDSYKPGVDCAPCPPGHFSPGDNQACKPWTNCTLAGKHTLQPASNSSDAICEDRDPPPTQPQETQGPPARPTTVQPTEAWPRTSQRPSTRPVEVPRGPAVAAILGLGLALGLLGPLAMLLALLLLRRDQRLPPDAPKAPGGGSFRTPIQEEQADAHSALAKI
The experiment in a line: flow cytometry, OX40-transfected HEK293F cells, gMFI (PE). (In flow cytometry, cells or beads pass a laser one at a time.)

Assay [2] addresses T2, human OX40 expressed on cells (human, UniProt P43489 29-277).
T2 construct: also called CD134; TNFRSF4
T2 sequence: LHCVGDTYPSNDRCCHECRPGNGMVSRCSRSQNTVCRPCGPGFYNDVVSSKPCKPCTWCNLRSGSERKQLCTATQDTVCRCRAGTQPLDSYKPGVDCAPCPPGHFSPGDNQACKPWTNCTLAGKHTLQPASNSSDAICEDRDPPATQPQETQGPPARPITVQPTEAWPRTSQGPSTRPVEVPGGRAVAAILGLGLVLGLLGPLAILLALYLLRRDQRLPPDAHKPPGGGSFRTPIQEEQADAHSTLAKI
The experiment in a line: flow cytometry, activated human CD4+ T cells, mean of 3 donors. The protocol:
Healthy human donor PBMCs were purified essentially as described in Example 7. The cell concentration was adjusted to 2×10⁶ cells per mL (final concentration) in assay medium and plated in 6-well plates (Greiner, cat. no. 657160). PBMCs were stimulated with 0.3 μg/mL anti-CD3 ([…] Technologies, cat. no. 60011) and 0.5 μg/mL anti-CD28 antibodies (BioLegend, cat. no. 302934) and cultured for two days at 37° C., 5% CO₂. Next, the PBMCs were harvested, counted and brought to a concentration of 2×10⁶ cells per mL in FACS buffer 1 (DPBS with 2% heat-inactivated FBS and 2 mM ethylenediaminetetraacetic acid [EDTA]). […] After 60 min at RT, the cells were prepared for flow cytometric analyses. To this end, the cells were washed twice with 150 μL FACS buffer 1 and 30 μL/well cell-surface antibody mix (Table 9) in FACS buffer 1 containing antibody against human Fcγ antibody (Table 9) and fixable viability dye eFluor780 (1:1,500) was added. The staining procedures were carried out at 4° C. for 15-20 min protected from light. Stained cells were washed twice with 120-150 μL FACS buffer 1 (5 min, 460×g, RT) and resuspended in 60-100 μL FACS buffer 1 for direct flow cytometric analyses. Flow cytometric data were acquired on a FACSymphony A3 and analyzed with FlowJo software.

The target of assay [3] is T3, human OX40 with mouse CRD4 (human with mouse CRD4, UniProt P43489 29-277).
T3 construct: on ExpiCHO-S cells; also called OX40-CRD4mm; Shuffle 4
T3 chain: T2 sequence with D109N, A122S, H125Q, L127R, Q128H, N132D, S134L, I137V
The experiment in a line: flow cytometry, transfected ExpiCHO-S cells, MFI at 5 µg/mL as % of IgG1-CD134-A4453. On the procedure: (§1) The four shuffle constructs, as well as wild-type human and mouse OX40 were transiently expressed on ExpiCHO-S cells using the ExpiFectamine™ CHO Transfection Kit (ThermoFisher, cat. no. A29131), according to the manufacturer's protocol. […] Next, cells were washed twice in FACS buffer 1, were resuspended in a 30 μL solution of viability marker ToPro-3 (Invitrogen, cat. no. T3605, diluted 1:10,000) in FACS buffer 1 supplemented with 2 mM EDTA, and were analyzed on an iQue Screener Plus (Intellicyt Corporation, USA). Data were analyzed using FlowJo software and visualized using GraphPad Prism.

Assay [4] deals with T4, human OX40 with mouse CRD2 (human with mouse CRD2, UniProt P43489 29-277).
T4 construct: on ExpiCHO-S cells; also called OX40-CRD2mm; Shuffle 2
T4 chain: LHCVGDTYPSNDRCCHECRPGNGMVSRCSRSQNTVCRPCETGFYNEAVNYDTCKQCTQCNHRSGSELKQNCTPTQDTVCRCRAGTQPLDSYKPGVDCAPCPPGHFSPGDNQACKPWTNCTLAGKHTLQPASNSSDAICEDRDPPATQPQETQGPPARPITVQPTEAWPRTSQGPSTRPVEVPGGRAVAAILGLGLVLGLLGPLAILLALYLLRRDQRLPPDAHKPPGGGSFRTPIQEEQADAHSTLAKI
The description is as above. The protocol:
as §1

B1: IgG1-CD134-003-HC6LC2-P329R-E345R (antibody)
heavy: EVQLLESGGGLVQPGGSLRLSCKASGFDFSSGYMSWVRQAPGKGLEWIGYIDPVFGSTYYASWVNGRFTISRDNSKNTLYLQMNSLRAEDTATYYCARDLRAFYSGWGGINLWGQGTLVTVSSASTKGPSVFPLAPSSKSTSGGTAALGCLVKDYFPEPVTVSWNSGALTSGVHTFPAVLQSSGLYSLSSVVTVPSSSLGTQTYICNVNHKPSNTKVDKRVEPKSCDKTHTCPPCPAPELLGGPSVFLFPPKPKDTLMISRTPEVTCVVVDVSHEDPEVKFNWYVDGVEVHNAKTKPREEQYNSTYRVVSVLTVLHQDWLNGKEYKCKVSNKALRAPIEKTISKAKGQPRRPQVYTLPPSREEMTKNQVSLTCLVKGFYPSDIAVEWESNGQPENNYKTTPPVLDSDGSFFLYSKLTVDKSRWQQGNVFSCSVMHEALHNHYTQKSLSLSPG
light: AAVLTQSPSSLSASVGDRVTITCQSSQIVVNNNFLSWYQQKPGKAPKLLIYDASNLASGVPDRFSGSGSGTDFTFTISSLQPEDIATYYCLGGYDDDAENAFGGGTKVEIKRTVAAPSVFIFPPSDEQLKSGTASVVCLLNNFYPREAKVQWKVDNALQSGNSQESVTEQDSKDSTYSLSSTLTLSKADYEKHKVYACEVTHQGLSSPVTKSFNRGEC
notes: humanized; human IgG1 with P329R and E345R (Eu numbering), kappa; also called IgG1-CD134-003-HC6LC2-RR
What is called EC50 (read off the curve) is the concentration needed to bring the measured effect to its halfway point. A word on the EC50: it is the concentration needed to bring the measured effect to its halfway point. As for B1, in assay [1], the concentration giving a half-maximal response (EC50 (read off the curve)) is around 0.05 µg/mL. Moreover, the midpoint of the response in assay [2], the EC50, lay at 0.0209 µg/mL. The binding result in assay [3] and in assay [4] was “binds” each time.
